B1: GS4: single chain heparanase, W118-(GS)4-E143 spacer, protein SEQ ID NO:25 (protein)
chain: MLLRSKPALPPPLMLLLLGPLGPLSPGALPRPAQAQDVVDLDFFTQEPLHLVSPSFLSVTIDANLATDPRFLILLGSPKLRTLARGLSPAYLRFGGTKTDFLIFDPKKESTFEERSYWGSGAGSGAEWPYQEQLLLREHYQKKFKNSTYSRSSVDVLYTFANCSGLDLIFGLNALLRTADLQWNSSNAQLLLDYCSSKGYNISWELGNEPNSFLKKADIFINGSQLGEDFIQLHKLLRKSTFKNAKLYGPDVGQPRRKTAKMLKSFLKAGGEVIDSVTWHHYYLNGRTATREDFLNPDVLDIFISSVQKVFQVVESTRPGKKVWLGETSSAYGGGAPLLSDTFAAGFMWLDKLGLSARMGIEVVMRQVFFGAGNYHLVDENFDPLPDYWLSLLFKKLVGTKVLMASVQGSKRRKLRVYLHCTNTDNPRYKEGDLTLYAINLHNVTKYLRLPYPFSNKQVDKYLLRPLGPHGLLSKSVQLNGLTLKMVDDQTLPPLMEKPLRPGSSLGLPAFSYSFFVIRNAKVAACI
modifications: hep GS-A4
B2: 106: single chain heparanase linking the 8 and 50 kDa subunits directly, protein SEQ ID NO:17 (protein)
chain: MLLRSKPALPPPLMLLLLGPLGPLSPGALPRPAQAQDVVDLDFFTQEPLHLVSPSFLSVTIDANLATDPRFLILLGSPKLRTLARGLSPAYLRFGGTKTDFLIFDPKKFKNSTYSRSSVDVLYTFANCSGLDLIFGLNALLRTADLQWNSSNAQLLLDYCSSKGYNISWELGNEPNSFLKKADIFINGSQLGEDFIQLHKLLRKSTFKNAKLYGPDVGQPRRKTAKMLKSFLKAGGEVIDSVTWHHYYLNGRTATREDFLNPDVLDIFISSVQKVFQVVESTRPGKKVWLGETSSAYGGGAPLLSDTFAAGFMWLDKLGLSARMGIEVVMRQVFFGAGNYHLVDENFDPLPDYWLSLLFKKLVGTKVLMASVQGSKRRKLRVYLHCTNTDNPRYKEGDLTLYAINLHNVTKYLRLPYPFSNKQVDKYLLRPLGPHGLLSKSVQLNGLTLKMVDDQTLPPLMEKPLRPGSSLGLPAFSYSFFVIRNAKVAACI
modifications: hep 106
B3: GS3: single chain heparanase, subunits linked via (GS)3 glycine-serine spacer, protein SEQ ID NO:21 (protein)
chain: MLLRSKPALPPPLMLLLLGPLGPLSPGALPRPAQAQDVVDLDFFTQEPLHLVSPSFLSVTIDANLATDPRFLILLGSPKLRTLARGLSPAYLRFGGTKTDFLIFDPKKEGSGSGSKKFKNSTYSRSSVDVLYTFANCSGLDLIFGLNALLRTADLQWNSSNAQLLLDYCSSKGYNISWELGNEPNSFLKKADIFINGSQLGEDFIQLHKLLRKSTFKNAKLYGPDVGQPRRKTAKMLKSFLKAGGEVIDSVTWHHYYLNGRTATREDFLNPDVLDIFISSVQKVFQVVESTRPGKKVWLGETSSAYGGGAPLLSDTFAAGFMWLDKLGLSARMGIEVVMRQVFFGAGNYHLVDENFDPLPDYWLSLLFKKLVGTKVLMASVQGSKRRKLRVYLHCTNTDNPRYKEGDLTLYAINLHNVTKYLRLPYPFSNKQVDKYLLRPLGPHGLLSKSVQLNGLTLKMVDDQTLPPLMEKPLRPGSSLGLPAFSYSFFVIRNAKVAACI
modifications: hep GS3
B4: 109: single chain heparanase linking the 8 and 50 kDa subunits directly, protein SEQ ID NO:20 (protein)
chain: MLLRSKPALPPPLMLLLLGPLGPLSPGALPRPAQAQDVVDLDFFTQEPLHLVSPSFLSVTIDANLATDPRFLILLGSPKLRTLARGLSPAYLRFGGTKTDFLIFDPKKEKKFKNSTYSRSSVDVLYTFANCSGLDLIFGLNALLRTADLQWNSSNAQLLLDYCSSKGYNISWELGNEPNSFLKKADIFINGSQLGEDFIQLHKLLRKSTFKNAKLYGPDVGQPRRKTAKMLKSFLKAGGEVIDSVTWHHYYLNGRTATREDFLNPDVLDIFISSVQKVFQVVESTRPGKKVWLGETSSAYGGGAPLLSDTFAAGFMWLDKLGLSARMGIEVVMRQVFFGAGNYHLVDENFDPLPDYWLSLLFKKLVGTKVLMASVQGSKRRKLRVYLHCTNTDNPRYKEGDLTLYAINLHNVTKYLRLPYPFSNKQVDKYLLRPLGPHGLLSKSVQLNGLTLKMVDDQTLPPLMEKPLRPGSSLGLPAFSYSFFVIRNAKVAACI
modifications: hep 109
B5: hyaluro: single chain heparanase with grafted loop region from hyaluronidase, protein SEQ ID NO:27 (protein)
chain: MLLRSKPALPPPLMLLLLGPLGPLSPGALPRPAQAQDVVDLDFFTQEPLHLVSPSFLSVTIDANLATDPRFLILLGSPKLRTLARGLSPAYLRFGGTKTDFLIFDPKKESTFEERSYWAFKDKTPEWPYQEQLLLREHYQKKFKNSTYSRSSVDVLYTFANCSGLDLIFGLNALLRTADLQWNSSNAQLLLDYCSSKGYNISWELGNEPNSFLKKADIFINGSQLGEDFIQLHKLLRKSTFKNAKLYGPDVGQPRRKTAKMLKSFLKAGGEVIDSVTWHHYYLNGRTATREDFLNPDVLDIFISSVQKVFQVVESTRPGKKVWLGETSSAYGGGAPLLSDTFAAGFMWLDKLGLSARMGIEVVMRQVFFGAGNYHLVDENFDPLPDYWLSLLFKKLVGTKVLMASVQGSKRRKLRVYLHCTNTDNPRYKEGDLTLYAINLHNVTKYLRLPYPFSNKQVDKYLLRPLGPHGLLSKSVQLNGLTLKMVDDQTLPPLMEKPLRPGSSLGLPAFSYSFFVIRNAKVAACI
modifications: hep Hya1
B6: GS6: single chain heparanase, subunits linked via (GS)6 spacer, protein SEQ ID NO:26 (protein)
chain: MLLRSKPALPPPLMLLLLGPLGPLSPGALPRPAQAQDVVDLDFFTQEPLHLVSPSFLSVTIDANLATDPRFLILLGSPKLRTLARGLSPAYLRFGGTKTDFLIFDPKKEGSGSGSGSGSGSKKFKNSTYSRSSVDVLYTFANCSGLDLIFGLNALLRTADLQWNSSNAQLLLDYCSSKGYNISWELGNEPNSFLKKADIFINGSQLGEDFIQLHKLLRKSTFKNAKLYGPDVGQPRRKTAKMLKSFLKAGGEVIDSVTWHHYYLNGRTATREDFLNPDVLDIFISSVQKVFQVVESTRPGKKVWLGETSSAYGGGAPLLSDTFAAGFMWLDKLGLSARMGIEVVMRQVFFGAGNYHLVDENFDPLPDYWLSLLFKKLVGTKVLMASVQGSKRRKLRVYLHCTNTDNPRYKEGDLTLYAINLHNVTKYLRLPYPFSNKQVDKYLLRPLGPHGLLSKSVQLNGLTLKMVDDQTLPPLMEKPLRPGSSLGLPAFSYSFFVIRNAKVAACI
modifications: hep GS-A6

What was measured:
[1] = Heparanase enzymatic activity of constructs transiently expressed in COS-7 cells (radiometric or fluorimetric assay); assay type: biochemical; settings: for enzymatic activity: extracted by heparin affinity chromatography; for stability of the construct (conclusion from expression level): expression barely detectable by Western blot
Protocol: Cells were grown in Dulbecco's MEM (Gibco BRL, Gaithersburg, Md.). All constructs were cloned into the eukaryotic expression plasmid pcDNA3 (Invitrogen). A vector encoding the reporter gene β-lactamase (BLA) was co-transfected in order to check transfection efficiency of each construct. […] Transient transfection of COS7 cells was obtained using the fuGENE 6 Transfection Reagent (Roche, Basel, Switzerland) according to manufacturer's instructions. 24 hours after transfection, efficiency was assessed by fluorimetric detection of BLA-positive cells. 96 hours after transfection, cells were harvested and resuspended in lysis buffer (50 mM Tris-HCl pH 7.5, 150 mM NaCl, 0.5% Triton) containing Complete protease inhibitor cocktail (Roche). The lysis was carried out on ice for 30 minutes. After centrifugation at 14000 rpm for 30 minutes, the heparanase containing supernatants were recovered and partially purified as outlined below.
Heparanase constructs were expressed in COS-7 cells, which are devoid of endogenous heparanse activity, by transient transfection. Heparanase was extracted from cell lysates by heparin affinity chromatography and quantified on Western blots. In parallel, heparanase enzymatic activity was determined with either the radiometric or fluorimetric assay (FIG. 5). From Western blot analysis, we concluded that wt heparanase as well as the single chain constructs GS3 and hyaluro are efficiently expressed and processed, whereas constructs 106 and GS4 are expressed but not processed. Expression levels of constructs 109 and GS6 were extremely low and barely detectable by Western blot analysis. […] Since GS3 and hyaluro are active but are processed despite the changes that were introduced in the cleavage sites we can not draw any conclusion with respect to the intrinsic activity of the precursors. We therefore proceeded with the expression in cells that are devoid of the enzyme(s) responsible for heparanase processing.
(§1) Cell lysates from COS7 or Sf9 insect cells were passed through 500 μl Heparin Sepharose CL-6B (Amersham, Piscataway, N.J.) by gravity. The column was washed with 2 ml of lysis buffer, then with 2 ml of 50 mM Tris-HCl pH 7.5, 500 mM NaCl, and heparanase was eluted with 2 ml of 50 mM Tris-HCl pH 7.5, 1 M NaCl and concentrated about 5 fold with a Biomax-30K centrifugal concentrator (Millipore, Bedford, Mass.). 10% glycerol was added and the protein was stored in aliquots at −80° C. Protein concentration was determined using the BIO-RAD Protein Assay.
(§2) This assay is based on the degradation of FITC-HS monitored by HPLC size exclusion chromatography. 8 μl of purified heparanase was incubated with 5 μL of FITC-HS in a 50 μl of 50 mM MES pH 6, 10% glycerol (heparanase activity buffer, HAB). The reaction mixture was incubated at room temperature for a defined period and the reaction was stopped by the addition of 50 μg of heparin. The mixture was then filtered using Ultrafree-MC centrifugal filter Devices (Millipore). 20 μl were injected on a Superdex 75™ (Pharmacia Biotech) column equilibrated in buffer 50 mM Hepes pH 7.5 150 mM Na2SO4 and connected to a Merck-Hitachi HPLC system. Fluorescent heparan sulfate degradation products were detected by an L-7485 fluorescence detector. Heparanase activity was assessed by monitoring the increase in lower molecular weight heparan sulfate species compared with the intact FITC-HS and quantified by peak area integration.
This assay is based on the degradation of tritiated heparan sulfate immobilized on microplate. Each well of the Reacti-Bind Streptavidin High Binding Capacity Coated Plates was pre-treated according to manufacturer's instructions. Initially, different amounts of each fraction of tritiated, biotinylated heparan sulfate obtained after PD-10 desalting column were added to each well (in duplicate) in PBS to a final volume of 100 μl. […]

[2] = Heparanase enzymatic activity of constructs expressed in Sf9 insect cells (fluorimetric assay); assay type: biochemical; settings: for pH and ionic strength dependence of the enzymatic activity: compared with wild type enzyme from COS-7 cells or HCT-116 cells; for enzymatic activity of the unprocessed purified protein: expressed in Sf9 cells, compared with correctly processed wild type enzyme from COS-7 cells
Protocol: Recombinant baculoviruses containing the heparanase constructs were generated using the Bac to Bac expression system (Invitrogen). Recombinant baculoviruses were used to infect Sf9 insect cells (50×10^6 cells per T-175 flask) grown in Grace's insect medium with 10% FBS. Cells were collected 48 h after infection, and centrifuged at 500 g for 5 minutes. Cell lysates were prepared as above, except the lysis buffer contained 500 mM NaCl instead of the 150 mM used for COS7, which improved protein quantity in the soluble fraction.
The proteins were expressed in Sf9 cells and purified by heparin affinity chromatography.
as §1, §2

Row | Molecule | enzymatic activity [1] | pH and ionic strength dependence of the enzymatic activity [2] | enzymatic activity of the unprocessed purified protein [2] | stability of the construct (conclusion from expression level) [1]
1 | B1 | inactive | – | – | –
2 | B2 | inactive | – | – | –
3 | B3 | showed enzymatic activity | undistinguishable from the wild type recombinant enzyme | highly active | –
4 | B4 | – | – | – | probably unstable
5 | B5 | showed enzymatic activity | undistinguishable from the wild type recombinant enzyme | highly active | –
6 | B6 | – | – | – | probably unstable
